Like-named read-outs stand apart in the source and are kept apart here.
What was measured:
BMP7 [1] = target: T1, BMP7 (UniProt P18075 293-431); assay: Biacore SPR
T1 sequence (looked up): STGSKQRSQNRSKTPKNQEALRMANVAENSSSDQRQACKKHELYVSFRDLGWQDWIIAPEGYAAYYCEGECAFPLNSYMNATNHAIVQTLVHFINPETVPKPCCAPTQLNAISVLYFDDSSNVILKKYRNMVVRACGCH
Experimental: (§1) Ligands were injected and allowed to flow over the captured receptor protein.

activin A = target: T2, activin A (UniProt P08476 311-426); assay: Biacore SPR
T2 sequence (looked up): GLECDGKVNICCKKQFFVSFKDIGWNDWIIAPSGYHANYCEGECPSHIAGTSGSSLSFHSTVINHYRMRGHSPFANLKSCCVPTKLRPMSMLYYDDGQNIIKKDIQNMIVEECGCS
Experimental: as §1

BMP9 = target: T3, BMP9 (UniProt Q9UK05 320-429); assay: Biacore SPR
T3 construct: also called GDF2
T3 sequence (looked up): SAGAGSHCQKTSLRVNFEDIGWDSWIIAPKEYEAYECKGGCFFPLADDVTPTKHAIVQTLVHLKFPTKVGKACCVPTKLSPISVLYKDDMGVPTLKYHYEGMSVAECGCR
Experimental: as §1

GDF8 = target: T4, GDF8 (UniProt O14793 267-375); assay: Biacore SPR
T4 construct: also called myostatin
T4 sequence (looked up): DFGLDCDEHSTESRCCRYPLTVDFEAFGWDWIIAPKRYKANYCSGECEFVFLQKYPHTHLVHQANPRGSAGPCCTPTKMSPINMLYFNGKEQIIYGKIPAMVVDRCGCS
Experimental: as §1

BMP5 [2] = target: T5, BMP5 (UniProt P22003 317-454, limits assumed); assay: Biacore SPR
T5 sequence (looked up): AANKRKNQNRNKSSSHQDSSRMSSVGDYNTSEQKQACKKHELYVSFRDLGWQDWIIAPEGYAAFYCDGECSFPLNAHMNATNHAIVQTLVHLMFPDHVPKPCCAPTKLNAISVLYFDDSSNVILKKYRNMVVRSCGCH
Experimental: as §1

GDF3 = target: T6, GDF3 (UniProt Q9NR23 251-364); assay: Biacore SPR
T6 sequence (looked up): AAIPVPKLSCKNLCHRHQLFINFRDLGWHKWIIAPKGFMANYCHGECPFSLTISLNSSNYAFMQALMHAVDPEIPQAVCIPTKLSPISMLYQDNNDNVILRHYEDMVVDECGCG
Experimental: as §1

activin B = target: T7, activin B (UniProt P09529 293-407); assay: Biacore SPR
T7 sequence (looked up): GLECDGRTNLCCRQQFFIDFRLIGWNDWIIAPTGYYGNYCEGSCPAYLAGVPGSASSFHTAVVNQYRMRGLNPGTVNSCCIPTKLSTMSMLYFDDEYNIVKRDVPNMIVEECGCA
Experimental: as §1

GDF11 = target: T8, GDF11 (UniProt O95390 299-407); assay: Biacore SPR
T8 construct: also called BMP11
T8 sequence (looked up): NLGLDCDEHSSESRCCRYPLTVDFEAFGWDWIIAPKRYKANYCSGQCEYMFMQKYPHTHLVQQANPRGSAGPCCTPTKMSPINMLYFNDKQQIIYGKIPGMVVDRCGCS
Experimental: as §1

GDF5 = target: T9, GDF5 (UniProt P43026 382-501); assay: Biacore SPR
T9 construct: also called BMP14
T9 sequence (looked up): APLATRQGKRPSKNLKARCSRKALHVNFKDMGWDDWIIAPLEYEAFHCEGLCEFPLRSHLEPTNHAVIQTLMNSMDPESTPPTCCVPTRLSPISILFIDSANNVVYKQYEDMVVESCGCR
Experimental: as §1

BMP10 = target: T10, BMP10 (UniProt O95393 317-424); assay: Biacore SPR
T10 sequence (looked up): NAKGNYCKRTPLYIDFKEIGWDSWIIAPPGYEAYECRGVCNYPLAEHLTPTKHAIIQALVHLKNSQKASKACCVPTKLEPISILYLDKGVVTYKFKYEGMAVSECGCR
Experimental: as §1

GDF6 = target: T11, GDF6 (UniProt Q6KF10 336-455, limits assumed); assay: Biacore SPR; kinetics indeterminate (transient)
T11 construct: also called BMP13
T11 sequence (looked up): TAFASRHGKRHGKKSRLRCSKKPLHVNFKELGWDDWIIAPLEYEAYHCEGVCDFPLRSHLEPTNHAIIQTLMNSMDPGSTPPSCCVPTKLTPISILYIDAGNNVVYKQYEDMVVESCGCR
Experimental: as §1

BMP15 [3] = target: T12, BMP15 (UniProt O95972 268-392); assay: Biacore SPR
T12 construct: also called GDF9b
T12 sequence (looked up): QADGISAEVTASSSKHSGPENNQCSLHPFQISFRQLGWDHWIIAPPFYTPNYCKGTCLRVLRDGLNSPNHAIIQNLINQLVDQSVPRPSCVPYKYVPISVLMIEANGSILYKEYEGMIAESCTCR
Experimental: as §1

BMP5 [4] = target: T5, BMP5; assay: Biacore SPR; remark: listed apart in the source
Experimental: (§2) A Biacore™-based binding assay was used to compare ligand binding selectivity of the BMPRII-Fc:ALK2-Fc heterodimeric complex described above with that of BMPRII-Fc and ALK2-Fc homodimeric complexes. […] Ligands were injected and allowed to flow over the captured receptor protein.

BMP15 [5] = target: T12, BMP15; assay: Biacore SPR; remark: listed apart in the source
Experimental: as §2

BMP15 [6] = target: T12, BMP15; assay: Biacore SPR; remark: listed apart in the source
Experimental: as §1

BMP7 [7] = target: T1, BMP7; assay: Biacore SPR; kinetics indeterminate (transient)
Experimental: as §2

BMP7 [8] = target: T1, BMP7; assay: Biacore SPR; kinetics indeterminate (transient); remark: listed apart in the source
BMP6 = target: T13, BMP6 (UniProt P22004 382-513, limits assumed); assay: Biacore SPR; kinetics indeterminate (transient)
T13 sequence (looked up): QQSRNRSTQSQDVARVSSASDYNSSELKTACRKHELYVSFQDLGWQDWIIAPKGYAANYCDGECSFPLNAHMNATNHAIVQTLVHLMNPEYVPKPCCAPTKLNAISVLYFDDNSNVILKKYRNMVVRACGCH

BMP15 [9] = target: T12, BMP15; assay: Biacore SPR; remark: listed apart in the source
Experimental: as §1

B1: ActRIIB-Fc:ALK2-Fc heterodimer (Fc fusion)
chain 1: GRGEAETRECIYYNANWELERTNQSGLERCEGEQDKRLHCYASWRNSSGTIELVKKGCWLDDFNCYDRQECVATEENPQVYFCCCEGNFCNERFTHLPEAGGPEVTYEPPPTAPTGGGTHTCPPCPAPELLGGPSVFLFPPKPKDTLMISRTPEVTCVVVDVSHEDPEVKFNWYVDGVEVHNAKTKPREEQYNSTYRVVSVLTVLHQDWLNGKEYKCKVSNKALPAPIEKTISKAKGQPREPQVYTLPPSRKEMTKNQVSLTCLVKGFYPSDIAVEWESNGQPENNYKTTPPVLKSDGSFFLYSKLTVDKSRWQQGNVFSCSVMHEALHNHYTQKSLSLSPGK
chain 2: MEDEKPKVNPKLYMCVCEGLSCGNEDHCEGQQCFSSLSINDGFHVYQKGCFQVYEQGKMTCKTPPSPGQAVECCQGDWCNRNITAQLPTKGKSFPGTQNFHLETGGGTHTCPPCPAPELLGGPSVFLFPPKPKDTLMISRTPEVTCVVVDVSHEDPEVKFNWYVDGVEVHNAKTKPREEQYNSTYRVVSVLTVLHQDWLNGKEYKCKVSNKALPAPIEKTISKAKGQPREPQVYTLPPSREEMTKNQVSLTCLVKGFYPSDIAVEWESNGQPENNYDTTPPVLDSDGSFFLYSDLTVDKSRWQQGNVFSCSVMHEALHNHYTQKSLSLSPG
notes: C-terminal Lys optional; also called ActRIIB-Fc:ALK2-Fc heterodimeric complex
BMP7 [1]
  Kd: 0.17 nM
  koff: 0.0026 s⁻¹
  kon: 1.5e+07 M⁻¹ s⁻¹
Activin A
  Kd: 0.076 nM
  koff: 0.0026 s⁻¹
  kon: 3.4e+07 M⁻¹ s⁻¹
BMP9
  Kd: 0.28 nM
  koff: 0.00089 s⁻¹
  kon: 3.2e+06 M⁻¹ s⁻¹
GDF8
  Kd: 0.36 nM
  koff: 0.00073 s⁻¹
  kon: 2.1e+06 M⁻¹ s⁻¹
BMP5 [2]
  Kd: 1.2 nM
  koff: 0.0014 s⁻¹
  kon: 1.2e+06 M⁻¹ s⁻¹
GDF3
  Kd: 6.5 nM
  koff: 0.012 s⁻¹
  kon: 1.8e+06 M⁻¹ s⁻¹
Activin B
  Kd: 0.047 nM
  koff: 0.00015 s⁻¹
  kon: 3.2e+06 M⁻¹ s⁻¹
GDF11
  Kd: 0.6 nM
  koff: 0.00093 s⁻¹
  kon: 1.6e+06 M⁻¹ s⁻¹
GDF5
  Kd: 5 nM
  koff: 0.0044 s⁻¹
  kon: 880000 M⁻¹ s⁻¹
BMP10
  Kd: 0.053 nM
  koff: 0.0029 s⁻¹
  kon: 5.5e+07 M⁻¹ s⁻¹
GDF6
  Kd: > 240 nM

B2: BMPRII-Fc homodimer (Fc fusion, UniProt Q13873 27-150, looked up, not shown: a dimerising Fc or GST)
chain: SQNQERLCAFKDPYQQDLGIGESRISHENGTILCSKGSTCYGLWEKSKGDINLVKQGCWSHIGDPQECHYEECVVTTTPPSIQNGTYRFCCCSTDLCNVNFTENFPPPDTTPLSPPHSFNRDET
notes: extracellular domain
BMP15 [3]
  Kd: 0.29 nM
  koff: 0.0028 s⁻¹
  kon: 9.9e+06 M⁻¹ s⁻¹
BMP5 [4]
  Kd: 9.9 nM
  koff: 0.019 s⁻¹
  kon: 1.9e+06 M⁻¹ s⁻¹
BMP15 [5]
  Kd: 0.72 nM
  koff: 0.0042 s⁻¹
  kon: 5.8e+06 M⁻¹ s⁻¹
BMP15 [6]
  Kd: 0.29 nM
  koff: 0.0028 s⁻¹
  kon: 9.9e+06 M⁻¹ s⁻¹
BMP7 [7]
  Kd: > 93 nM
BMP7 [8]
  Kd: > 38 nM
BMP6
  Kd: > 8.9 nM
BMP15 [9]
  Kd: 0.29 nM
  koff: 0.0028 s⁻¹
  kon: 9.9e+06 M⁻¹ s⁻¹

From patent publication US20190225669A1 (ACCELERON PHARMA, published 2019)
